Assays:
Experiment in all cases: holdup assay
Parameters in all cases: key: below the threshold = too weak to quantify, mostly under pKd 3.1 to 4
[1] = biological target: ARHGEF12, Q9NZN5-2
[2] = biological target: T1, PTPN13_1, Q12923
T1 sequence (Q12923 1088-1188, limits assumed, looked up): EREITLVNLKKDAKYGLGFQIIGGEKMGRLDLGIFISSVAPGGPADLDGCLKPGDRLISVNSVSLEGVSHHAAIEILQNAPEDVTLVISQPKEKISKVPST

[3] = biological target: T2, SNTG2, Q9NY99
T2 sequence (Q9NY99 68-166, limits assumed, looked up): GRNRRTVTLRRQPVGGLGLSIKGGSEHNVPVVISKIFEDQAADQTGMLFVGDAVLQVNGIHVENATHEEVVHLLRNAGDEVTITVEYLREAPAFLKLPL

[4] = biological target: LNX1_2, Q8TBB1
Sequence of LNX1_2, Q8TBB1 (Q8TBB1 371-470): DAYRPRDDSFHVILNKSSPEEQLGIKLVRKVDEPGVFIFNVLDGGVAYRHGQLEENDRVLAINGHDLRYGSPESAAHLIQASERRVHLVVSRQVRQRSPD

[5] = biological target: MAGI2_3, Q86UL8
Sequence of MAGI2_3, Q86UL8 (Q86UL8 600-682): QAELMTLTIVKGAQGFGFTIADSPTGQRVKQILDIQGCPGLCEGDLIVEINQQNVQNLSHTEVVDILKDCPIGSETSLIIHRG

[6] = biological target: FRMPD2_3, Q68DX3
Sequence of FRMPD2_3, Q68DX3 (Q68DX3 1073-1166): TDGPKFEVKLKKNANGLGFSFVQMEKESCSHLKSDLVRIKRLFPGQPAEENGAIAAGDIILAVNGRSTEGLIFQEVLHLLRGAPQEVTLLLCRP

[7] = biological target: T3, FRMPD1, Q5SYB0
T3 sequence (Q5SYB0 52-145, limits assumed, looked up): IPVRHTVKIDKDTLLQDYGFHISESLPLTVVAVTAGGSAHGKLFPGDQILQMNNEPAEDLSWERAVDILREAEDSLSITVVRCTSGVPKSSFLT

[8] = biological target: MAGI2_6, Q86UL8
Sequence of MAGI2_6, Q86UL8 (Q86UL8 1141-1229): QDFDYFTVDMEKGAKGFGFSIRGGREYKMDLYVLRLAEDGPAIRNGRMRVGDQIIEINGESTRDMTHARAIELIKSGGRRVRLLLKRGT

[9] = biological target: Inadl_8, Q8NI35
Sequence of Inadl_8, Q8NI35 (Q8NI35 1425-1530): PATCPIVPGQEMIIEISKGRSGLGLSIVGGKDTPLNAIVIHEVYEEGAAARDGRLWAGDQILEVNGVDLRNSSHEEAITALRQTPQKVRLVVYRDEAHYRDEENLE

[10] = biological target: FRMPD4, Q14CM0
Sequence of FRMPD4, Q14CM0 (Q14CM0 67-160): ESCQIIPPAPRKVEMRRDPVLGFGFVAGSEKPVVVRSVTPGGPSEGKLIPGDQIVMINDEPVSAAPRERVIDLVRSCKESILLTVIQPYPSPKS

[11] = biological target: FRMPD2_2, Q68DX3
Sequence of FRMPD2_2, Q68DX3 (Q68DX3 944-1038): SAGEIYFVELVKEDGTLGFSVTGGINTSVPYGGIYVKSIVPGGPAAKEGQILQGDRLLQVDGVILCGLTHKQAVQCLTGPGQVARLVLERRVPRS

[12] = biological target: T4, TIAM2, Q8IVF5
T4 sequence (Q8IVF5 885-986, limits assumed, looked up): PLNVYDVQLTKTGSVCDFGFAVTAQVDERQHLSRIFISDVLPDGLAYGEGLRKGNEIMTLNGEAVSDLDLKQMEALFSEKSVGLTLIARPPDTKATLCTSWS

[13] = biological target: GRASP, Q7Z6J2
Sequence of GRASP, Q7Z6J2 (Q7Z6J2 96-193): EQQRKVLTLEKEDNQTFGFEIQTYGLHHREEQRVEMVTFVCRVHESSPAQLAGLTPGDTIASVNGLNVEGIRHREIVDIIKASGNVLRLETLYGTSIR

[14] = biological target: PDZRN4_1, Q6ZMN7
Sequence of PDZRN4_1, Q6ZMN7 (Q6ZMN7 213-318): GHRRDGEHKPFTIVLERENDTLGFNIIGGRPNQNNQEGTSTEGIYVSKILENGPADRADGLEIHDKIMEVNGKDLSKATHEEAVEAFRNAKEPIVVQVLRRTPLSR

[15] = biological target: T5, SIPA1L2, Q9P2F8
T5 sequence (Q9P2F8 945-1036, limits assumed, looked up): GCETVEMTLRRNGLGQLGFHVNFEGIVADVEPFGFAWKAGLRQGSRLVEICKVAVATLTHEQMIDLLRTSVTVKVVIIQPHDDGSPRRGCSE

[16] = biological target: DLG2_3, Q15700
[17] = biological target: T6, PDZD7_3, Q9H5P4
T6 sequence (Q9H5P4 857-944, limits assumed, looked up): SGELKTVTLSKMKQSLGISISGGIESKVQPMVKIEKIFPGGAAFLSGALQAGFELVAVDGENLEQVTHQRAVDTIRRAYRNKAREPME

[18] = biological target: GRIP2_4, Q9C0E4
Sequence of GRIP2_4, Q9C0E4 (Q9C0E4 446-548): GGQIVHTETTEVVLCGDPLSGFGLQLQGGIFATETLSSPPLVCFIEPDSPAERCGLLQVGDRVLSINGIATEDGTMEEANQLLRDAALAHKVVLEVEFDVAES

[19] = biological target: T7, DVL3, Q92997
T7 sequence (Q92997 244-331, limits assumed, looked up): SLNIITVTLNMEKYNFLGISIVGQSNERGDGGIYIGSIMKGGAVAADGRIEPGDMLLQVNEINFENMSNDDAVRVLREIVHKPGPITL

[20] = biological target: LNX1_1, Q8TBB1
Sequence of LNX1_1, Q8TBB1 (Q8TBB1 261-371): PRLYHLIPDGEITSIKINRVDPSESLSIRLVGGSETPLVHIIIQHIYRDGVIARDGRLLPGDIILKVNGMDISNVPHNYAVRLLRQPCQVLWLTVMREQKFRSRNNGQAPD

[21] = biological target: FRMPD2_1, Q68DX3
Sequence of FRMPD2_1, Q68DX3 (Q68DX3 770-861): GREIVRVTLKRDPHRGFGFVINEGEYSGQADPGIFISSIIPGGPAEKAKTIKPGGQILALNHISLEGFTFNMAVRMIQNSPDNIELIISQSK

[22] = biological target: Inadl_6, Q8NI35
Sequence of Inadl_6, Q8NI35 (Q8NI35 1058-1167): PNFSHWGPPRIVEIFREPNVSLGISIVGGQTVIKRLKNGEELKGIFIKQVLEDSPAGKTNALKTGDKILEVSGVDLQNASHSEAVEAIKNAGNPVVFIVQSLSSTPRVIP

[23] = biological target: T8, APBA3_1, O96018
T8 sequence (O96018 389-490, limits assumed, looked up): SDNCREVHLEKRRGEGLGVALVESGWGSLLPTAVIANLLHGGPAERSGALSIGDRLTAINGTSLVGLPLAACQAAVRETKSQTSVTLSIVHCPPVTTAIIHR

[24] = biological target: T9, HTRA4, P83105
T9 sequence (P83105 378-476, limits assumed, looked up): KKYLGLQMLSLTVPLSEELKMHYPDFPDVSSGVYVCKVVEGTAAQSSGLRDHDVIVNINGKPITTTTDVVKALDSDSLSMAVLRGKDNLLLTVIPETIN

[25] = biological target: T10, RHPN1, Q8TCX5
T10 sequence (Q8TCX5 508-602, limits assumed, looked up): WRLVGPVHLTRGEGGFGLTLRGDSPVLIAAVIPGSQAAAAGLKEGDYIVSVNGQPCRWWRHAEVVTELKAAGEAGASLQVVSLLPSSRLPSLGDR

[26] = biological target: NHERF4_4, Q86UT5
Sequence of NHERF4_4, Q86UT5 (Q86UT5 464-550): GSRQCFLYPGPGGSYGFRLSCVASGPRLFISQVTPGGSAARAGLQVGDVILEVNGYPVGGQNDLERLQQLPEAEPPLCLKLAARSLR

[27] = biological target: T11, RAPGEF6, Q8TEU7
T11 sequence (Q8TEU7 525-625, limits assumed, looked up): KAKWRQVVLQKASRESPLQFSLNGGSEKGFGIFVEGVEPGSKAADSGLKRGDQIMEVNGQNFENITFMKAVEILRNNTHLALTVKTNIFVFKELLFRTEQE

[28] = plain residues with an end cap or a label only (N-terminal biotin on a linker: ahx)
[29] = plain residues with an end cap or a label only (N-terminal biotin on a linker: ado-ado)
[30] = plain residues with an end cap or a label only (N-terminal biotin on a linker: (peg)3)

Sequence of ARHGEF12, Q9NZN5-2 (Q9NZN5 other isoform, or with tags, fused parts or gaps): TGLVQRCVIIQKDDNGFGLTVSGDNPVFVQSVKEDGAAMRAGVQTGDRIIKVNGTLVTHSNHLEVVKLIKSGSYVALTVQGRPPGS

B1: RTKN, Q9BST9 (peptide)
chain: QPRTWLQSPV
- pKd [1, 28]: 3.99
- pKd [2, 28]: below the threshold
- pKd [3, 28]: below the threshold
- pKd [4, 28]: below the threshold
- pKd [5, 28]: below the threshold
- pKd [6, 28]: below the threshold
- pKd [7, 28]: below the threshold
- pKd [8, 28]: below the threshold
- pKd [9, 28]: 4.89
- pKd [10, 28]: below the threshold
- pKd [11, 28]: below the threshold
- pKd [12, 28]: below the threshold
- pKd [13, 28]: 3.9
- pKd [14, 28]: below the threshold
- pKd [15, 28]: below the threshold
- pKd [16, 28]: 3.62
- pKd [17, 28]: below the threshold
- pKd [18, 28]: below the threshold
- pKd [19, 28]: below the threshold
- pKd [20, 28]: below the threshold
- pKd [21, 28]: below the threshold
- pKd [22, 28]: below the threshold
- pKd [23, 28]: below the threshold
- pKd [24, 28]: below the threshold
- pKd [25, 28]: 3.7
- pKd [26, 28]: below the threshold
- pKd [27, 28]: below the threshold

B2: ABCA1, O95477 (peptide)
chain: QDEKVKESYV
- pKd [1, 28]: 4.27
- pKd [2, 28]: below the threshold
- pKd [3, 28]: 5.06
- pKd [4, 28]: below the threshold
- pKd [5, 28]: 4.85
- pKd [6, 28]: 3.9
- pKd [7, 28]: below the threshold
- pKd [8, 28]: 4.53
- pKd [9, 28]: 4.68
- pKd [10, 28]: below the threshold
- pKd [11, 28]: 5.31
- pKd [12, 28]: below the threshold
- pKd [13, 28]: 3.57
- pKd [14, 28]: 3.95
- pKd [15, 28]: below the threshold
- pKd [16, 28]: 4.63
- pKd [17, 28]: 5.35
- pKd [18, 28]: below the threshold
- pKd [19, 28]: 3.7
- pKd [20, 28]: 4.38
- pKd [21, 28]: 3.53
- pKd [22, 28]: 4.29
- pKd [23, 28]: below the threshold
- pKd [24, 28]: below the threshold
- pKd [25, 28]: 4.9
- pKd [26, 28]: below the threshold
- pKd [27, 28]: below the threshold

B3: FZD10, Q9ULW2 (peptide)
chain: EIPAQSPTCV
- pKd [1, 29]: 3.91
- pKd [2, 29]: 3.72
- pKd [3, 29]: 3.85
- pKd [4, 29]: 4.13
- pKd [5, 29]: below the threshold
- pKd [6, 29]: 3.77
- pKd [7, 29]: 3.56
- pKd [8, 29]: 3.85
- pKd [9, 29]: 4.35
- pKd [10, 29]: 3.75
- pKd [11, 29]: 3.74
- pKd [12, 29]: 3.7
- pKd [13, 29]: 4.22
- pKd [14, 29]: 3.63
- pKd [15, 29]: 3.69
- pKd [16, 29]: below the threshold
- pKd [17, 29]: 4.3
- pKd [18, 29]: below the threshold
- pKd [19, 29]: 3.6
- pKd [20, 29]: below the threshold
- pKd [21, 29]: 3.92
- pKd [22, 29]: 3.7
- pKd [23, 29]: 3.57
- pKd [24, 29]: 4.29
- pKd [25, 29]: below the threshold
- pKd [26, 29]: below the threshold
- pKd [27, 29]: below the threshold

B4: WNV-NS5, Q9Q6P4 (peptide)
chain: RYEDTTLVEDTVL
- pKd [1, 30]: 3.92
- pKd [2, 30]: below the threshold
- pKd [3, 30]: 4
- pKd [4, 30]: below the threshold
- pKd [5, 30]: below the threshold
- pKd [6, 30]: below the threshold
- pKd [7, 30]: below the threshold
- pKd [8, 30]: 3.78
- pKd [9, 30]: below the threshold
- pKd [10, 30]: 4.85
- pKd [11, 30]: below the threshold
- pKd [12, 30]: below the threshold
- pKd [13, 30]: 3.9
- pKd [14, 30]: 3.94
- pKd [15, 30]: below the threshold
- pKd [16, 30]: below the threshold
- pKd [17, 30]: 4.54
- pKd [18, 30]: below the threshold
- pKd [19, 30]: below the threshold
- pKd [20, 30]: 3.74
- pKd [21, 30]: below the threshold
- pKd [22, 30]: below the threshold
- pKd [23, 30]: below the threshold
- pKd [24, 30]: below the threshold
- pKd [25, 30]: 4.41
- pKd [26, 30]: below the threshold
- pKd [27, 30]: below the threshold

B5: PTPRG, P23470 (peptide)
chain: DPAESMESLV
- pKd [1, 29]: below the threshold
- pKd [2, 29]: below the threshold
- pKd [3, 29]: 4.24
- pKd [4, 29]: below the threshold
- pKd [5, 29]: 4.54
- pKd [6, 29]: below the threshold
- pKd [7, 29]: below the threshold
- pKd [8, 29]: 4.16
- pKd [9, 29]: below the threshold
- pKd [10, 29]: 3.58
- pKd [11, 29]: 4.54
- pKd [12, 29]: below the threshold
- pKd [13, 29]: 3.62
- pKd [14, 29]: 3.72
- pKd [15, 29]: below the threshold
- pKd [16, 29]: below the threshold
- pKd [17, 29]: 4.54
- pKd [18, 29]: below the threshold
- pKd [19, 29]: below the threshold
- pKd [20, 29]: 4.06
- pKd [21, 29]: below the threshold
- pKd [22, 29]: 3.88
- pKd [23, 29]: below the threshold
- pKd [24, 29]: 3.83
- pKd [25, 29]: 4.17
- pKd [26, 29]: 3.75
- pKd [27, 29]: below the threshold

From article PMC9482650, “Quantitative fragmentomics allow affinity mapping of interactomes” (Nature Communications, 2022)
